# Results as given in US20170298096A1 (CANIMGUIDE THERAPEUTICS, published 2017).
# B1: SEQ ID NO: 290 KKKDTFFVKLSLFTER (peptide)
# peptide: KKKDTFFVKLSLFTER
# B2: SEQ ID NO: 293 KKQDTFFVKLSLFTER (peptide)
# peptide: KKQDTFFVKLSLFTER
# B3: SEQ ID NO: 298 KKLATFFVKLSLFTER (peptide)
# peptide: KKLATFFVKLSLFTER
# B4: SEQ ID NO: 302 KKLWTFFVKLSLFTER (peptide)
# peptide: KKLWTFFVKLSLFTER
# B5: SEQ ID NO: 314 KKLDTIFVKLSLFTER (peptide)
# peptide: KKLDTIFVKLSLFTER
# B6: SEQ ID NO: 311 KKLDWFFVKLSLFTER (peptide)
# peptide: KKLDWFFVKLSLFTER
# B7: SEQ ID NO: 300 KKLITFFVKLSLFTER (peptide)
# peptide: KKLITFFVKLSLFTER
# B8: SEQ ID NO: 299 KKLETFFVKLSLFTER (peptide)
# peptide: KKLETFFVKLSLFTER
# B9: SEQ ID NO: 295 KKSDTFFVKLSLFTER (peptide)
# peptide: KKSDTFFVKLSLFTER
# B10: SEQ ID NO: 316 KKLDTNFVKLSLFTER (peptide)
# peptide: KKLDTNFVKLSLFTER
# B11: SEQ ID NO: 296 KKTDTFFVKLSLFTER (peptide)
# peptide: KKTDTFFVKLSLFTER
# B12: SEQ ID NO: 305 KKLDMFFVKLSLFTER (peptide)
# peptide: KKLDMFFVKLSLFTER
# B13: SEQ ID NO: 292 KKNDTFFVKLSLFTER (peptide)
# peptide: KKNDTFFVKLSLFTER
# B14: SEQ ID NO: 297 KKVDTFFVKLSLFTER (peptide)
# peptide: KKVDTFFVKLSLFTER
# B15: SEQ ID NO: 304 KKLDCFFVKLSLFTER (peptide)
# peptide: KKLDCFFVKLSLFTER
# B16: SEQ ID NO: 291 KKMDTFFVKLSLFTER (peptide)
# peptide: KKMDTFFVKLSLFTER
# B17: SEQ ID NO: 294 KKRDTFFVKLSLFTER (peptide)
# peptide: KKRDTFFVKLSLFTER
# B18: SEQ ID NO: 306 KKLDNFFVKLSLFTER (peptide)
# peptide: KKLDNFFVKLSLFTER
# B19: SEQ ID NO: 309 KKLDRFFVKLSLFTER (peptide)
# peptide: KKLDRFFVKLSLFTER
# B20: SEQ ID NO: 318 KKLDTTFVKLSLFTER (peptide)
# peptide: KKLDTTFVKLSLFTER
# B21: SEQ ID NO: 317 KKLDTPFVKLSLFTER (peptide)
# peptide: KKLDTPFVKLSLFTER
# B22: SEQ ID NO: 307 KKLDPFFVKLSLFTER (peptide)
# peptide: KKLDPFFVKLSLFTER
# B23: SEQ ID NO: 301 KKLVTFFVKLSLFTER (peptide)
# peptide: KKLVTFFVKLSLFTER
# B24: SEQ ID NO: 308 KKLDQFFVKLSLFTER (peptide)
# peptide: KKLDQFFVKLSLFTER
# B25: SEQ ID NO: 303 KKLYTFFVKLSLFTER (peptide)
# peptide: KKLYTFFVKLSLFTER
# B26: SEQ ID NO: 315 KKLDTMFVKLSLFTER (peptide)
# peptide: KKLDTMFVKLSLFTER
# B27: SEQ ID NO: 312 KKLDYFFVKLSLFTER (peptide)
# peptide: KKLDYFFVKLSLFTER
# B28: SEQ ID NO: 310 KKLDSFFVKLSLFTER (peptide)
# peptide: KKLDSFFVKLSLFTER
# B29: SEQ ID NO: 313 KKLDTAFVKLSLFTER (peptide)
# peptide: KKLDTAFVKLSLFTER
# Biological target: T1, His-tagged P3028 peptide (PGE73) (human)
# T1 construct: albumin-derived peptide, in solution at 0.5 ug/mL; not shown: His-tag
# T1 peptide: VFDEFKPLVEEPQNLIK
# Test: PEPSCAN ELISA, peptide on card
row,Binder,RAMPO Score
1,B1,386
2,B2,473
3,B3,494
4,B4,443
5,B5,466
6,B6,418
7,B7,430
8,B8,417
9,B9,393
10,B10,446
11,B11,451
12,B12,475
13,B13,374
14,B14,377
15,B15,449
16,B16,460
17,B17,370
18,B18,436
19,B19,430
20,B20,481
21,B21,497
22,B22,427
23,B23,424
24,B24,535
25,B25,422
26,B26,467
27,B27,425
28,B28,458
29,B29,575
